Measured values taken from patent US8822171.

Tested on: recombinant human tau, largest isoform (2N4R)

| Substance | New sites identified in recombinant tau (phosphorylated residues, numbered on 441-residue human tau) | in vitro phosphorylation of recombinant tau, sites identified by LC/MS/MS |
| --- | --- | --- |
| casein kinase 2 (CK2) | (52/56), 199, 386, 400, (412/413/414/416, 1 site) | CK2 found 5 new sites making a total of 8 in all. |
| cyclic AMP-dependent protein kinase (PKA) | 210, (217/220), 258, 352, (412/413) | PKA found 5 new sites making a total of 24 in all. |
| glycogen synthase kinase 3β (GSK-3β) | 149, 220, 237, 241, 245, 258, 285, 289, 305, 352, 373, (409/412/413/414/416, 2 sites of which 1 or 2 are new) | GSK-3 found 12 new sites making a total of 38 in all. |
